Measured values reported in IntAct's records for PubMed 11359767.

B1: E3 ubiquitin-protein ligase NEDD4 (Homo sapiens), P46934 (parent)
chain: MAQSLRLHFAARRSNTYPLSETSGDDLDSHVHMCFKRPTRISTSNVVQMKLTPRQTALAPLIKENVQSQERSSVPSSENVNKKSSCLQISLQPTRYSGYLQSSNVLADSDDASFTCILKDGIYSSAVVDNELNAVNDGHLVSSPAICSGSLSNFSTSDNGSYSSNGSDFGSCASITSGGSYTNSVISDSSSYTFPPSDDTFLGGNLPSDSTSNRSVPNRNTTPCEIFSRSTSTDPFVQDDLEHGLEIMKLPVSRNTKIPLKRYSSLVIFPRSPSTTRPTSPTSLCTLLSKGSYQTSHQFIISPSEIAHNEDGTSAKGFLSTAVNGLRLSKTICTPGEVRDIRPLHRKGSLQKKIVLSNNTPRQTVCEKSSEGYSCVSVHFTQRKAATLDCETTNGDCKPEMSEIKLNSDSEYIKLMHRTSACLPSSQNVDCQININGELERPHSQMNKNHGILRRSISLGGAYPNISCLSSLKHNCSKGGPSQLLIKFASGNEGKVDNLSRDSNRDCTNELSNSCKTRDDFLGQVDVPLYPLPTENPRLERPYTFKDFVLHPRSHKSRVKGYLRLKMTYLPKTSGSEDDNAEQAEELEPGWVVLDQPDAACHLQQQQEPSPLPPGWEERQDILGRTYYVNHESRRTQWKRPTPQDNLTDAENGNIQLQAQRAFTTRRQISEETESVDNRESSENWEIIREDEATMYSNQAFPSPPPSSNLDVPTHLAEELNARLTIFGNSAVSQPASSSNHSSRRGSLQAYTFEEQPTLPVLLPTSSGLPPGWEEKQDERGRSYYVDHNSRTTTWTKPTVQATVETSQLTSSQSSAGPQSQASTSDSGQQVTQPSEIEQGFLPKGWEVRHAPNGRPFFIDHNTKTTTWEDPRLKIPAHLRGKTSLDTSNDLGPLPPGWEERTHTDGRIFYINHNIKRTQWEDPRLENVAITGPAVPYSRDYKRKYEFFRRKLKKQNDIPNKFEMKLRRATVLEDSYRRIMGVKRADFLKARLWIEFDGEKGLDYGGVAREWFFLISKEMFNPYYGLFEYSATDNYTLQINPNSGLCNEDHLSYFKFIGRVAGMAVYHGKLLDGFFIRPFYKMMLHKPITLHDMESVDSEYYNSLRWILENDPTELDLRFIIDEELFGQTHQHELKNGGSEIVVTNKNKKEYIYLVIQWRFVNRIQKQMAAFKEGFFELIPQDLIKIFDENELELLMCGLGDVDVNDWREHTKYKNGYSANHQVIQWFWKAVLMMDSEKRIRLLQFVTGTSRVPMNGFAELYGSNGPQSFTVEQWGTPEKLPRAHTCFNRLDLPPYESFEELWDKLQMAIENTQGFDGVD
partner: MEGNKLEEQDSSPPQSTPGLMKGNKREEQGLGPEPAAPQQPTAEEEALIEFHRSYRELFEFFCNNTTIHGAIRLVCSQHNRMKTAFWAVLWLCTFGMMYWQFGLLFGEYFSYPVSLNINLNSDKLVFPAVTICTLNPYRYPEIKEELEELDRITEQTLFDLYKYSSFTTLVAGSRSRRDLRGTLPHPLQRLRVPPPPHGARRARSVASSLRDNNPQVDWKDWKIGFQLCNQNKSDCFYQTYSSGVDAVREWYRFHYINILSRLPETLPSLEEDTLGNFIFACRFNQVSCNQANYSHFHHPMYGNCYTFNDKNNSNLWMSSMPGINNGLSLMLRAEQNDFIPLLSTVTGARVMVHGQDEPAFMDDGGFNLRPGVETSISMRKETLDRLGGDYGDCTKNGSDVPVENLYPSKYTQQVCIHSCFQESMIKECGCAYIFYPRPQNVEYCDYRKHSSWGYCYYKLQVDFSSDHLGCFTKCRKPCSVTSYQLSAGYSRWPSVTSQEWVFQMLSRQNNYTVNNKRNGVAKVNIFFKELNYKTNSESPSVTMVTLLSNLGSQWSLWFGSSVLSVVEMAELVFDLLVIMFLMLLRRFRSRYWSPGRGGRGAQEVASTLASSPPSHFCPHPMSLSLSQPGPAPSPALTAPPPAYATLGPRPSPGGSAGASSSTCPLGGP

Variants of: B1
Settings: with scnna_human SCNN1A

Variant	effect of a mutation on the interaction
V629W;H631G;V786W;H788G;I859W;H861G;I911W;H913G	disrupting interaction strength
V629W;H631G	with no effect
V629W;H631G;V786W;H788G;I859W;H861G	disrupting interaction strength
V629W;H631G;I859W;H861G;I911W;H913G	disrupting interaction strength

Now from value to variant:

effect of a mutation on the interaction	Variant
with no effect	I911W;H913G
with no effect	V629W;H631G;V786W;H788G;I911W;H913G
disrupting interaction strength	V786W;H788G;I859W;H861G;I911W;H913G
disrupting interaction strength	I859W;H861G
with no effect	V786W;H788G
